Literature values in PMC8215388.

Biological target: DnaK (Escherichia coli) (UniProt P0A6Y8)
Experiment: analytical ultracentrifugation and cross-linking

Sequence of DnaK (P0A6Y8 2-638): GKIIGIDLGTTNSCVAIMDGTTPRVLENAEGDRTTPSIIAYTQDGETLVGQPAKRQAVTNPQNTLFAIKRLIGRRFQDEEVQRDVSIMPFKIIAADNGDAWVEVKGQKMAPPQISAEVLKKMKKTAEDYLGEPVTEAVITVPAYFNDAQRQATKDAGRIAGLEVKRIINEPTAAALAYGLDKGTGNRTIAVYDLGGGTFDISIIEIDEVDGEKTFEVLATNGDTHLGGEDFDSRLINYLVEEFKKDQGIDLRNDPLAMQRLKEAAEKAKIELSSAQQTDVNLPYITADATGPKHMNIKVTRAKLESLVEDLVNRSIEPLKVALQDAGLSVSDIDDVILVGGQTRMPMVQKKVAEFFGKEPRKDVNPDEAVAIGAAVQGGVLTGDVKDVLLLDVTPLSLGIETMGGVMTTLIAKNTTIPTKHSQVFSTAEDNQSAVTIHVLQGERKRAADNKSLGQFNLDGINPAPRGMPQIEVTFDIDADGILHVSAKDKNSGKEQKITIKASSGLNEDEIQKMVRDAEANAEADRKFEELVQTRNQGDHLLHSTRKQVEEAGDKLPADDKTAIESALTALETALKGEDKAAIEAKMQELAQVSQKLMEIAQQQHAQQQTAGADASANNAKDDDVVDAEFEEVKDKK

Kd: 200 µM
Substance: DnaK (from UniProt P0A6Y8)
